Measurements as given in the Immune Epitope Database (IEDB).
pKd: −log10 of the molar value.

Columns and labels:
[1] = biological target: HLA-B*18:01; experiment: IEDB peptide-MHC binding, purified MHC/direct/fluorescence; filed as Kd, often an IC50 or EC50 that approximates it; ≥ and ≤ were set here for values at or beyond the usual limits of such assays
[2] = biological target: HLA-A*02:02; experiment: IEDB peptide-MHC binding, purified MHC/competitive/radioactivity; filed as Kd, often an IC50 or EC50 that approximates it; ≥ and ≤ were set here for values at or beyond the usual limits of such assays
[3] = biological target: HLA-A*02:03; experiment: as above
[4] = biological target: HLA-A*02:06; experiment: as above
[5] = biological target: HLA-A*68:02; experiment: as above
[6] = biological target: HLA-B*08:01; experiment: as above
[7] = biological target: HLA-B*15:01; experiment: as above; conditions: source organism: Vaccinia virus WR
[8] = biological target: HLA-A*02:01; experiment: IEDB peptide-MHC binding, purified MHC/competitive/fluorescence; filed as Kd, often an IC50 or EC50 that approximates it; ≥ and ≤ were set here for values at or beyond the usual limits of such assays; conditions: source organism: Variola virus
[9] = biological target: HLA-B*40:01; experiment: IEDB peptide-MHC binding, purified MHC/direct/fluorescence; filed as Kd, often an IC50 or EC50 that approximates it; ≥ and ≤ were set here for values at or beyond the usual limits of such assays; conditions: source organism: Entamoeba histolytica HM-1:IMSS
[10] = biological target: HLA-A*30:01; experiment: IEDB peptide-MHC binding, purified MHC/competitive/radioactivity; filed as Kd, often an IC50 or EC50 that approximates it; ≥ and ≤ were set here for values at or beyond the usual limits of such assays
[11] = biological target: HLA-B*35:01; experiment: as above
[12] = biological target: HLA-A*01:01; experiment: as above
[13] = biological target: HLA-A*23:01; experiment: as above
[14] = biological target: HLA-A*24:02; experiment: as above
[15] = biological target: HLA-A*26:01; experiment: as above
[16] = biological target: HLA-A*29:02; experiment: as above
[17] = biological target: HLA-A*30:02; experiment: as above
[18] = biological target: HLA-A*03:01; experiment: as above; conditions: source organism: Triticum aestivum
[19] = biological target: HLA-A*11:01; experiment: as above; conditions: source organism: Triticum aestivum
[20] = biological target: HLA-A*31:01; experiment: as above; conditions: source organism: Triticum aestivum
[21] = biological target: HLA-A*33:01; experiment: as above; conditions: source organism: Triticum aestivum
[22] = biological target: HLA-A*68:01; experiment: as above; conditions: source organism: Triticum aestivum
[23] = biological target: HLA-B*53:01; experiment: as above; conditions: source organism: Dengue virus 1 Singapore/S275/1990
[24] = source organism: Lassa virus GA391
[25] = source organism: Vaccinia virus WR
[26] = source organism: Dengue virus 2 Jamaica/1409/1983
[27] = source organism: Dengue virus 3 Martinique/1243/1999
[28] = source organism: Lassa virus Josiah
[29] = source organism: Mammarenavirus lassaense
[30] = source organism: Triticum aestivum
[31] = source organism: Dengue virus 4 Philippines/H241/1956
[32] = source organism: Lymphocytic choriomeningitis virus (strain Armstrong)
[33] = source organism: SARS coronavirus Tor2

NEAKVLELL
pKd ([1]; source organism: West Nile virus): 7.42

NISGYNFSL
pKd [2, 24]: 7.14
pKd [3, 24]: 5.68
pKd [4, 24]: 6.83
pKd [5, 24]: 6.75

NLEKQIATL
pKd ([5]; source organism: Homo sapiens): ≤ 4.58

NMHLKRSVF
pKd [6, 25]: 6.83

NSKSRICVI
pKd [6, 25]: 7.95
pKd [7]: 5.85

QLNMEKREV
pKd [8]: 6.85

RERGLALHV
pKd ([1]; source organism: Salmonella enterica subsp. enterica serovar Typhimurium str. LT2): 5.35

REVEEIIKY
pKd ([1]; source organism: Entamoeba histolytica HM-1:IMSS): 7.60
pKd [9]: 7.03

RMRFKKGAV
pKd [6, 25]: 8.27

RSTSLSVSLV
pKd [5, 26]: 6.60

RTATLILAGV
pKd [3, 27]: 8.19
pKd [4, 27]: 8.28
pKd [5, 27]: 9.59

RTRGPLGIL
pKd [10, 25]: 10.06

RVHDTNATK
pKd [10, 25]: 8.12

RVKQISIST
pKd ([10]; source organism: Vaccinia virus Copenhagen): 9.43

SGMVFTSPV
pKd [6, 25]: 7.11

SPYYRNSVA
pKd [6, 25]: 6.95

SRFKKVYIL
pKd [6, 25]: 7.12

SVNMISRMLI
pKd [5, 26]: 6.63

TTANISLTAI
pKd ([5]; source organism: Dengue virus 1 Brazil/97-11/1997): 9.10

VAATMANEM
pKd [11, 26]: 6.24

VLIALSVLAV
pKd [2, 28]: 6.79
pKd [3, 28]: 7.91
pKd [4, 28]: 6.89
pKd [5, 28]: 5.43

VPVHLCNLI
pKd [12, 29]: ≤ 4.11
pKd [13, 29]: 5.50
pKd [14, 29]: 5.24
pKd [15, 29]: ≤ 4.11
pKd [16, 29]: ≤ 4.10
pKd [17, 29]: ≤ 4.32

VVLQQHSIAY
pKd [12, 30]: ≤ 4.15
pKd [18]: 5.63
pKd [19]: 5.79
pKd [13, 30]: ≤ 4.59
pKd [14, 30]: ≤ 4.40
pKd [15, 30]: ≤ 4.16
pKd [16, 30]: 5.98
pKd [17, 30]: 5.27
pKd [20]: ≤ 4.15
pKd [21]: ≤ 4.15
pKd [22]: ≤ 4.60

WAFCEVLTL
pKd [11, 31]: 6.24

WAKNIHTAI
pKd [6, 31]: 7.63

WATLLSLTF
pKd ([11]; source organism: Dengue virus 1 Singapore/S275/1990): 6.90
pKd [23]: 8.39

WTAGADTSEV
pKd ([5]; source organism: Dengue virus 4 Dominica/814669/1981): 7.54

YCNYSKFWY
pKd [12, 32]: ≤ 4.67
pKd [13, 32]: 4.84
pKd [14, 32]: ≤ 4.63
pKd [15, 32]: ≤ 4.11
pKd [16, 32]: 5.99
pKd [17, 32]: 5.89

YFPREGVFVF
pKd [12, 33]: ≤ 4.15
pKd [13, 33]: 8.24
pKd [14, 33]: 8.13
pKd [15, 33]: 4.76
pKd [16, 33]: 8.14
pKd [17, 33]: ≤ 4.10

YRGAKRMAIL
pKd [6, 31]: 6.89

YRKYHVPIM
pKd [6, 25]: 7.21

YSAPFESEGV
pKd [5, 31]: 8.60
